Data as given in PMC4603552.
Read-outs that look alike come from different tables or passages of the source.

Row | Substance | other (SUMOylation at K65) | other (SUMOylation at K160)
1 | PML (PML-IV): K65R (FLAG-PML-IV-GFP, CHO-K1) | decreases | 
2 | PML (PML-IV): K65R in FLAG-PML-IV (aa 49-633) | decreases | 
3 | PML (PML-IV): K160R (FLAG-PML-IV-GFP, CHO-K1) |  | decreases
